PMC3941056 (The Journal of Cell Biology, 2014)

Molecular target: the molecule itself
Assay: fluorescence correlation spectroscopy

B1: HsSAS-6–[F131E] with a C-terminal GFP (natural protein, human, UniProt Q6UVJ0 1-657, looked up)
chain: MSQVLFHQLVPLQVKCKDCEERRVSIRMSIELQSVSNPVHRKDLVIRLTDDTDPFFLYNLVISEEDFQSLKFQQGLLVDFLAFPQKFIDLLQQCTQEHAKEIPRFLLQLVSPAAILDNSPAFLNVVETNPEKHLTHLSLKLLPGNDVEIKKFLAGCLKCSKEEKLSLMQSLDDATKQLDFTRKTLAEKKQELDKLRNEWASHTAALTNKHSQELTNEKEKALQAQVQYQQQHEQQKKDLEILHQQNIHQLQNRLSELEAANKDLTERKYKGDSTIRELKAKLSGVEEELQRTKQEVLSLRRENSTLDVECHEKEKHVNQLQTKVAVLEQEIKDKDQLVLRTKEAFDTIQEQKVVLEENGEKNQVQLGKLEATIKSLSAELLKANEIIKKLQGDLKTLMGKLKLKNTVTIQQEKLLAEKEEKLQKEQKELQDVGQSLRIKEQEVCKLQEQLEATVKKLEESKQLLKNNEKLITWLNKELNENQLVRKQDVLGPSTTPPAHSSSNTIRSGISPNLNVVDGRLTYPTCGIGYPVSSAFAFQNTFPHSISAKNTSHPGSGTKVQFNLQFTKPNASLGDVQSGATISMPCSTDKENGENVGLESKYLKKREDSIPLRGLSQNLFSNSDHQRDGTLGALHTSSKPTALPSASSAYFPGQLPNS
Question: Which results are given for B1?
Answer: brightness relative to monomeric GFP: ~1.6 fold; stoichiometry N: 2
